Measurements published in patent US20120114557A1 (published 2012).
Bridge positions count the residues as written; N and C are the ends. Primed or numbered codes have the meaning given here. Side chains are listed from the residue outwards. Ends that are not written are not given here. Gd^T″ = GdDTPA-thiourea; Gd^ = not defined here

B1: Compound ID 864 (peptide)
peptide: {Gd^}-TGQWHCTTRFPHHYCLYG
modifications: not fully specified (some residues, bridges); printed as Gd^T.G.Q.W.H.C.T.T.R.F.P.H.H.y.C.L.Y.G; reading uncertain; also: series closure stated: disulfide
notes: also called Comp ID NO; 864

Experiments:
[1] = target: T1, rat collagen type I (rat, UniProt P02454 152-1207; P02466 86-1125); experiment: dried collagen assay, 5 uM peptide
T1 construct: rat tail, Upstate 08-115; gelled and dried in wells; also called dried rat collagen; rat collagen (acid soluble, type I, rat tail)
T1 sequence (P02454 152-1207, chain 1 of 2): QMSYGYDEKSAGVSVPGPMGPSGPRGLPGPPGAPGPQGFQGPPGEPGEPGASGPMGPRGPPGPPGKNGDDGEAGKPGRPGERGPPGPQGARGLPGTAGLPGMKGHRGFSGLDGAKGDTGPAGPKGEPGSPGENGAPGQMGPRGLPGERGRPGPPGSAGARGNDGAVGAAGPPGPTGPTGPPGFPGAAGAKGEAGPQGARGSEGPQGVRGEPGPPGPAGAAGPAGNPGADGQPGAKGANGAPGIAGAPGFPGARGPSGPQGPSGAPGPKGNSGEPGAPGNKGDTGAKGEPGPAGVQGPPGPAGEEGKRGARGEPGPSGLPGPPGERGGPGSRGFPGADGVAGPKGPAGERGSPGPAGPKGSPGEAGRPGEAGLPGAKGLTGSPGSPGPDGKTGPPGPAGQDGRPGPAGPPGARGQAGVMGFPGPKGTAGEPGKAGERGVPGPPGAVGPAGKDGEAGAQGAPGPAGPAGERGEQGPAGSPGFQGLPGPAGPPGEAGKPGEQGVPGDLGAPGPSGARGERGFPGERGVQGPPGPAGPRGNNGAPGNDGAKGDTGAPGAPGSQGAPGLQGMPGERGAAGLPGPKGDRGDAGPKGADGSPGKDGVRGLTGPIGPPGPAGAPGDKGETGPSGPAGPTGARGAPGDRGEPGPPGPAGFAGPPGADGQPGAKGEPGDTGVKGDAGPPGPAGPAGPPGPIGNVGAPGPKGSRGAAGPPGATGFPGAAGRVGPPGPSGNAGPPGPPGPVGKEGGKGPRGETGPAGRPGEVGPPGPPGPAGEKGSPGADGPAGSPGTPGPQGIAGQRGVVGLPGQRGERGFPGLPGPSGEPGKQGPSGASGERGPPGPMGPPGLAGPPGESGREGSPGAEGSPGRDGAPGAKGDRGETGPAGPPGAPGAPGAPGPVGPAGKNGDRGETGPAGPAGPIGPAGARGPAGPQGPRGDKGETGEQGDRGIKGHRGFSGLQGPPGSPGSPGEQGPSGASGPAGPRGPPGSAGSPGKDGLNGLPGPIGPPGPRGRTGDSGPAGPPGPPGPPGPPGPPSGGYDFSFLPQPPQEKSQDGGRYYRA
T1 sequence (P02466 86-1125, chain 2 of 2): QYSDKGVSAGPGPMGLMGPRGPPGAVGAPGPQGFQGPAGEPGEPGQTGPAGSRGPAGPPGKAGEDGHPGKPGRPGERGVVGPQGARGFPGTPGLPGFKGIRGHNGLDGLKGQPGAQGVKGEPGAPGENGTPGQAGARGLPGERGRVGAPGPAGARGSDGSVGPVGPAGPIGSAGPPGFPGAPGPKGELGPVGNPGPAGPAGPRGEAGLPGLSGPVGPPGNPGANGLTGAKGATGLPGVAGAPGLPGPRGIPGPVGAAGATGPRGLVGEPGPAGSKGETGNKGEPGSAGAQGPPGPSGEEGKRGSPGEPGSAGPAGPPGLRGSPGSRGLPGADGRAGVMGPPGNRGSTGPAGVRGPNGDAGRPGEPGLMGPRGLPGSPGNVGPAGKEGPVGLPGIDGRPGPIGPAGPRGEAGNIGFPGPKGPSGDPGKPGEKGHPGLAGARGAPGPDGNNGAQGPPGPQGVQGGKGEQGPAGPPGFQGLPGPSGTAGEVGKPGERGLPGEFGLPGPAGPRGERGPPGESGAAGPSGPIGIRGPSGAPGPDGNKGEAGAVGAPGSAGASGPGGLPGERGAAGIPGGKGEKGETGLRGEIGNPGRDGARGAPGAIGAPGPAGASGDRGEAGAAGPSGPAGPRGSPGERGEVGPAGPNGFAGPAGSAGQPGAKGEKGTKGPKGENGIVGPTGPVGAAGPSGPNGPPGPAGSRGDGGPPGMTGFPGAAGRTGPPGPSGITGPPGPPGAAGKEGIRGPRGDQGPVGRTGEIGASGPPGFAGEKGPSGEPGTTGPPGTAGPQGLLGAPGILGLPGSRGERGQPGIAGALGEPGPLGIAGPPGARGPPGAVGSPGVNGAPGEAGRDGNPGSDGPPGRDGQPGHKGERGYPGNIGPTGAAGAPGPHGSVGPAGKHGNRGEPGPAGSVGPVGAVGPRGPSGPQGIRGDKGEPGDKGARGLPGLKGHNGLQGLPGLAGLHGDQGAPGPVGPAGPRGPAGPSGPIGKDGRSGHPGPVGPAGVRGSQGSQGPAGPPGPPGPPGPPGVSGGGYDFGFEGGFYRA
Protocol: (§2) For the final assay, a 1:10 volume of 10×PBS (100 mM NaH₂PO₄, 1.5 M NaCl pH 7.4) is added to the collagen solution (final 1×PBS) and incubated at 37° C. for 2 hours. The gelation is typically 90%.

[2] = target: T2, human collagen type I (human, UniProt P02452 162-1218; P08123 80-1119); experiment: dried collagen assay, 5 uM peptide
T2 construct: biotinylated collagen I in the phage ELISA; also called dried human collagen; Collagen I
T2 sequence (P02452 162-1218 limits assumed, chain 1 of 2): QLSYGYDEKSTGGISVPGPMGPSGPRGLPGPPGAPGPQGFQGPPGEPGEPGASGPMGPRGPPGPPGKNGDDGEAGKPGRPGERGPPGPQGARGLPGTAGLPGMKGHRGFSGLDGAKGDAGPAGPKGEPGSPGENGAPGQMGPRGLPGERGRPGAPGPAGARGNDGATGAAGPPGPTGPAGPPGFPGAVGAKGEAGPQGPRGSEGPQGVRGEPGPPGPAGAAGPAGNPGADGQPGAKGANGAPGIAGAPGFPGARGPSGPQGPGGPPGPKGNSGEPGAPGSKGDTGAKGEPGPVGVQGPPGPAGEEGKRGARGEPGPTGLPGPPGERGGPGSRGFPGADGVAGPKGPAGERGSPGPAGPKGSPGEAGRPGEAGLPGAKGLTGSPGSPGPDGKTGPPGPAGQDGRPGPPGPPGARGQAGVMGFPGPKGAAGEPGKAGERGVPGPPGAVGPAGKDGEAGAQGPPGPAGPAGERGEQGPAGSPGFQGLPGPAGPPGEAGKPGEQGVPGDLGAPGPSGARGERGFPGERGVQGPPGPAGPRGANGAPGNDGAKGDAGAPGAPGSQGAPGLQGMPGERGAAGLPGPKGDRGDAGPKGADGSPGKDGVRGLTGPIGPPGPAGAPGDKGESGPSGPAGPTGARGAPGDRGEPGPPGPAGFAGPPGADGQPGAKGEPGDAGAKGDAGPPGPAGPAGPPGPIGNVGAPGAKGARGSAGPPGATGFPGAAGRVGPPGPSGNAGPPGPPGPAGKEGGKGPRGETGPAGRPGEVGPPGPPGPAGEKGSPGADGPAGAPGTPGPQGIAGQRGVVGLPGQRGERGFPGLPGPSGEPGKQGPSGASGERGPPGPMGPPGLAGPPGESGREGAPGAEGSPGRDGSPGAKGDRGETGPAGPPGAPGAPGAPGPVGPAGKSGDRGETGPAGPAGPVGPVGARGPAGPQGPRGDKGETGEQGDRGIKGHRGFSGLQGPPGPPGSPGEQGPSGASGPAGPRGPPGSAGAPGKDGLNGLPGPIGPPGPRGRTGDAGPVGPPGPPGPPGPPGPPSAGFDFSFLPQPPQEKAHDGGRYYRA
T2 sequence (P08123 80-1119 limits assumed, chain 2 of 2): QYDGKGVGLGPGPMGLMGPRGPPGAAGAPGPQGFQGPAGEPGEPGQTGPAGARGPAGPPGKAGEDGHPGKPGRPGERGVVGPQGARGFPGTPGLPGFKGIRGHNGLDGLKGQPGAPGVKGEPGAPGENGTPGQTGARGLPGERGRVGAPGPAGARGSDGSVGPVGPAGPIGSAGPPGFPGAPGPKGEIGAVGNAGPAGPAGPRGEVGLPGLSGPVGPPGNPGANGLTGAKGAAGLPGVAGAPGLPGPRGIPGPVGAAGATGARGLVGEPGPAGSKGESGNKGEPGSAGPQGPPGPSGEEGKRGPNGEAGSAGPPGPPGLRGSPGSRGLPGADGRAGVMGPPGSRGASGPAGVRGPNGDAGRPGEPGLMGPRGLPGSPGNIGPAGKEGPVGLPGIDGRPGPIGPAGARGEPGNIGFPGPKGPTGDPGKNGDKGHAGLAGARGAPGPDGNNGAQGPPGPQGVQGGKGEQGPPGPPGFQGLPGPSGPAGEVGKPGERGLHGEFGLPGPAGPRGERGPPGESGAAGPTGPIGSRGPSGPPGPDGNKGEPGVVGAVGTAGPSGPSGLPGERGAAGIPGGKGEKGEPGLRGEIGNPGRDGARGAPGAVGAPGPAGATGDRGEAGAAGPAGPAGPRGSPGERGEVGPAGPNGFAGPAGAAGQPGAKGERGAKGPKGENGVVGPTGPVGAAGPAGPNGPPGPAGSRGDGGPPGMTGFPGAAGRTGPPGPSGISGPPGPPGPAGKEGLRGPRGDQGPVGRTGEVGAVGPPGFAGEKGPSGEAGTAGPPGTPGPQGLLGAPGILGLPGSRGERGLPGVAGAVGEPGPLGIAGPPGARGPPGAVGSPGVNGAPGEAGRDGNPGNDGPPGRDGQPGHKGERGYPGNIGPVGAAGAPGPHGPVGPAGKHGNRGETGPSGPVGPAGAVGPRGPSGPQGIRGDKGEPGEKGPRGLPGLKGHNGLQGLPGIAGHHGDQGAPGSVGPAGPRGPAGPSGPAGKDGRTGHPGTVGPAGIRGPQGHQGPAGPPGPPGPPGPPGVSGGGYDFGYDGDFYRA
Protocol: as §2

[3] = target: T2, human collagen type I; experiment: dried collagen assay, 5 uM peptide; remark: listed apart in the source
Protocol: An additional 90 μL is reserved in a HPLC glass vial as a measure of the total concentration.

[4] = target: T3, human collagen (acid soluble, extracted from placenta; type I) (human, UniProt P02452 162-1218; P08123 80-1119); experiment: dried collagen assay, 5 uM each, 37 C, pH 7.4
T3 construct: mature; Tissue-extracted collagen; also called human collagen type I
T3 sequence (P02452 162-1218, chain 1 of 2): as the sequence (P02452 162-1218 limits assumed, chain 1 of 2) above
T3 sequence (P08123 80-1119, chain 2 of 2): as the sequence (P08123 80-1119 limits assumed, chain 2 of 2) above
Protocol: (§1) For the final assay, a 1:10 volume of 10×PBS (100 mM NaH₂PO₄, 1.5 M NaCl pH 7.4) is added to the collagen solution (final 1×PBS) and incubated at 37° C. for 2 hours.

[5] = target: T4, rat collagen (acid soluble, type I, rat tail) (rat, UniProt P02454 152-1207; P02466 86-1125); experiment: dried collagen assay, 5 uM each, 37 C, pH 7.4
T4 construct: mature; Tissue-extracted collagen; also called rat collagen type I
T4 sequence (P02454 152-1207, chain 1 of 2): as the sequence (P02454 152-1207, chain 1 of 2) above
T4 sequence (P02466 86-1125, chain 2 of 2): as the sequence (P02466 86-1125, chain 2 of 2) above
Protocol: as §1

Binder | Dried Human Collagen Binding [3] [%] | also measured
YHACYQAGCYIY (disulfide 4-9 (inferred), also called TN-6 peptide) [SEQ ID NO: 108] | – | % Collagen Binding, Dried Rat [1]: 12%; % Collagen Binding, Dried Human [2]: 5%
GWSCHSMDMQWHCDFS (disulfide 4-13 (inferred), also called TN-10 peptide) [SEQ ID NO: 67] | 5 | –
{Gd^T″}-GQWTCSGDEYTWHCNYE-{GTE} (disulfide 5-14 (inferred), also called Comp ID NO; 837) [Compound ID 837] | – | Human binding [4]: 22%; Rat binding [5]: 10%
GWQCFGASDWHCTWV (disulfide 4-12, also called TN-9 peptide) [SEQ ID NO: 8] | 9 | –
SWHCFLENHHWMCSDH (disulfide 4-13 (inferred), also called TN-10 peptide) [SEQ ID NO: 68] | 5 | –
RWSCVLDADGWVCSDN (disulfide 4-13 (inferred), also called TN-10 peptide) [SEQ ID NO: 66] | 6 | –
ERNCVLNDFRWTCGGD (disulfide 4-13 (inferred), also called TN-10 peptide) [SEQ ID NO: 75] | 10 | –
SWYCNNGSYGQWHCEHR (disulfide 4-14 (inferred), also called TN-11 peptide) [SEQ ID NO: 80] | 6 | –
B1 | – | Human binding [4]: 64%
{Gd^T″}-GK([Gly-Gd^T″])WHCTTLFPHHVCLYG (disulfide 5-14 (inferred), also called Comp ID NO; 966) [Compound ID 966] | – | Rat binding [5]: 8%
GWQCQGTDSLDWKCLYM (disulfide 4-14 (inferred), also called TN-11 peptide) [SEQ ID NO: 77] | 12 | –
WQVCADSPGVITYCYTY (disulfide 4-14 (inferred), also called TN-11 peptide) [SEQ ID NO: 98] | 5 | –
